A short description of this data set: soluble on expression in E. coli; label from the status in PepcDB or PDB records.
Turning to “NDRFSWDTQFNISTIKNKLTSLIDEKPIPVGNHVLQVGQPIGSFYMYKMDGIYQDNQEVPEKLYAKGVRAGDIKYADKDNDGDLTPADKEIVGKPLPDFFGGLTNRFRYGNFDLTIFNTFSVGNDVYATGMGGIDAVGHNNYGMRKDIAANRWTGPGTNNSIPRAMISTHNTQASTYLLHDGSYFKFKDVTLGYTLPSNLTQKLNISNMRVYLSAQNLWTISSYPGYDPEVSYSVNNSKTMGEDAMTVPQLRTFVCGFNLTF”, the “soluble on expression in E. coli” value is on record as “not soluble”.

For “MGSDKIHHHHHHMMVLTLKDFEQTYFYKTELIQLCKVYGLPTYGTKAELNKYLTLYLSGTPACDIKVNRKHTTSRNKTKITLETKILGEGFSFNQEARKLFAEYFGKEKFSFKKEMAVIKRQAEHNGETKMTVRDLLERYQEMVGQGNVLRETAEEATYQWNNFVRDFCKSSESQNYHQKLKVAAILWEKVKNSKNDKKFEASLVQKYEKNISNYMNK”, the “soluble on expression in E. coli” value is “not soluble”.

Consider “ASVLTVKDIARKKPAAVFKKSEHDGPGSAMQILMDHDRDYGIVVDKSSRYSGIVSLDSLRLAHKENRSLASAQLEDDVTLQPDQSVNDILGVVASVPYAVPVVDEQGTYFGVVTKSRLLQTLDKD”, for which the “soluble on expression in E. coli” value is reported as “soluble”.

On to “MGSDKIHHHHHHMQQKKTTKEEYQKCVNVVVEYINQHLGEDIDLKSLARISNFSPFYFHRIMKAFLGEPIGTFIVRTRTEAAARLLRYSDIPIADIAYRIGYSSPSSLSKVFRQFYGISPLEYRNNKNFVIMKPAIIRPDLELKSEIKSIPARNVIYIRLSGDYKLNDYGGTWGRLWQFIKEQKLPMGDFSPLCIYHDDPKVTPAEKLRTDVCMVMPVQVAPKGDVGFKTLPAGRYAIFLYKGTYDNLQAVYDTIYGKCLPEMECTLRDEPSAERYLNNPCETAPEELLTEIYIPVE”, for which the “soluble on expression in E. coli” value was “not soluble”.

In the case of “MSEPPPPHSAPVPMVKTDFFAFSGPYLPEDAHGTSSPPEKQQQTRKRGRPTALELLTTRVEELEKENSSLRTFRTAAESRCRALESKQSELFQTVEQLKVVVAKLTNECSARVTSNLPAPRLFADVLKGQSAEKKAEIIAERREAAASISLFEKKTHFAVIENLPDDGSDSQSAKDKVFLDNLIAANPSLPVHIQTFRVKTRKPVLSRPTKIRFSSEADRNSFIFSFSKTLRSLPDRPTNLPRPIRCRRDMTNDVIYPERVES”, the “soluble on expression in E. coli” value is “not soluble”.

Turning to “MSSTAEEMAAAFEQTGGPDLTTGSGKRTKSDRVEHKHASQPGGDTRKVVQTASNGEAKRKEK”, the “soluble on expression in E. coli” value is listed as “not soluble”.

Regarding “MSNDLTQITQRSLDEQVIGNLNRLQEQGLEMPPGYSPQNALKSAFFELTNNSGGNLLQLAANNPETKTSISNALLDMVIQGLSPAKKQCYFIKYGNKVQLMRSYFGTMAVLDRVTGGADITPVVVREGDVFEIAMDGPDLVVAKHETAFENLDNDIKAAYVVIKLANGKEVTTVMTKKQIDKSWSKAKTKNVQNDFPEEMAKRTVINRAAKYLINTSNDNDLFVQAAKDTLENEFERKDVTPEREEQAAVLEEKLFSNNIKAVDQENENERITRVADVPEQPDIEQAKPIEKDNLTKVADQILEEPVQETLDVMAGYETNQKESEADVSTIEEDDYPF”, the “soluble on expression in E. coli” value is “not soluble”.

With “MEAKEKKYGEIEIEKAQLEAWPNPNPERDYMIEITFPEFTCLCPRSGYPDFATIKIRYIPDKYIVELKSLKLWLNKFRNRYISHEAATNEIYQALYDLLKPRFLEVVGDFHPRGNVHTVVRVRSDENYGAAAAAALEHHHHHH”, the “soluble on expression in E. coli” value is “soluble”.

For “MSSVYTMKRIWLQKDKKAYQAWRELMEKAELQTTEALDYTVGIYDDTALIASGSLSGKTIKCVAVCKKYQSENLLTQLVVHLLEKLREENQLHSFLYTKPKNEQIFQSLGFQKVVANQEVLFMEQGKPDFADYLGYLTQHKKAGPASSIVMNANPFTKGHQYLVEKAAQESPHVYVFVLSEDKSLFSKEARFAMVQKGVAHLPNVTVLSTEDYLVSSATFPTYFLKEKAPLEVAAIQATLDATLFKERIAPILEIQQRYVGEEPYSEVTAVYNQAMQQVFGQTITLTIVPRLASDGELISATKVRKAMAEGDKETLKKFLPATSYQYLVEHKKLMR”, the “soluble on expression in E. coli” value was “not soluble”.

Regarding “MRFFVSGMPGVGKTTLAKRIADEVRREGFKVGGIITEEIREGGKRTGFRVIALDTGEIGRLAYVGYGYPRLGKYVIDVEGFERVAIPALSRALRGADLIVIDEIGPMEFKSNEFLKALGLVLKSEKHLLATVHRRLVDRYRPLGEYYWLTPENRNAVFSEILGRIKGLLKEKLEHHHHHH”, the “soluble on expression in E. coli” value was “soluble”.

For the sequence “MGSDKIHHHHHHLDTIPTTYVDAGSVFGKTGDAEKVLNGGWNYLMETFNSYANPGYGAMLRANDAMGSDVVLNSKYGFRTHNEFSAIYGKGGTNTLSWLLAYRVINDCNGVLDNIDAAEGTQADRNRIKGQALALRGFLYLHLASCYSFAIDKDPDAVCAPIYTQSTDETIAAEGKPASSVSEVYAQSINDLEEALELIPETYVRDAKHKIDNEVVLGILSRACLYARQWEKAKTYSDKLLAKDNYLMTESEYKAGFNSVDNKEWIWGHAQTNDQSNASYQFHYLDTTTKGSYYYSFNVDPYFRDLFEDGDYRKEMLFWATDPGADVESAAYVWMRNSKFRFRDIENQLGDIVLMRVAEIYLINAEAKAHLNDPDAINKLNDLKTARGAKTIHTNLSQQDLLETIWLERRKELWGEGFSLIDIIRNQQTVVRNAYPEGPIDYIYTDENGQTHTLKKKTQGHRFFNFPDKSAFCPNSKYYLYRITDSEELANKNLYKDHPKLSIYTK”, the “soluble on expression in E. coli” value was “not soluble”.

For “MGSDKIHHHHHHMKEISVVLVGIGGYGNKYVEYILREGREKGVRISGVVDPYPQNSRFYDELRSLNVPMYNTLEEFYSHHTADLAIISSPIHYHCEQTCTAVRNGSHVLCEKPAAATVKEVKKMIECREKYGKIVAIGYQWSYNPAVLKLKEDILAGKFGKPVLFKTLVLWPRDTAYYRRNSWAGKLKVNNRWVLDSVAGNATAHFLHNMLFLLGEKMEESAYPESMVAELYRANDIESFDTCALKMTVRKIPVLFFATHAVKERKGPVFEYRFEKARVICNYPEYPESEENLLVVYEDGRKEIYGPTDHGSMRKLWVVVDAARGRKEFICTLESAMAHTIAINGAHVSMKEIQDFPTELKRVEGEPPMIWVEGLKEAMERAYEEEKIFSELNLPWAKRGEEVKLENFEGLEGEITC”, the “soluble on expression in E. coli” value is “not soluble”.

As for “MSLDNKRRFALVGTGNRGTTMWGRDLLAGWRGLVDLVAIADTNALRAERARTMIATNAPVYGNVDAMLAETRPDLVIVCTPDDTHDDIVVRALESGADVITEKPMSTTVEKIRRILDAEKRTGRRVDVSFNYRFAPTAARIKELLNAGEIGRVTSVDFHWYLDTRHGADYFRRWHAYAEHSGSLFVHKATHHFDLLNWYLDSDPEAVSAFADLQMYGRRGPFRGPRCKLCPHKSECDFYLDLEADPFLDSLYEEPSEIDSYFRDGCVFREDIDIPDTMVANIRYRNDVHVSYSLNTFQPIEGHHIAFNGTKGRIELRQYEDQPWETPPEDEILLVRNFPKGKPAMERITVPHFPGGHYGGDDRLRNTLFEPDAKDPLGQRAGARAGAMSVLCGIAALQSSRTGKIVRLADLMPELFTDGAQPMRERLKETCSREGHHHHHH”, the “soluble on expression in E. coli” value was “soluble”.

For “FSVEELSEILESHSIRLELQPILELETGRVGAAEGLLRINLDGTDVPTGQFVQSVEQAGLAPKLDIAVMREGINHIERLRAVCPTFSLALNLSGYSLSSAKIREELRAEFRARDLPRGSIRFEITETAPIEDIDAAKEFVQMLKDFGFHIVIDDFGAGHEPYQYLKKFDFSVLKIAGEFIEGMVTNRVDRSIVESIAQLAKDEEMETVAEFVSSKEILEAVREIGVTYAQGFHIGKSKPIDEFIATYLETNQTATWG”, the “soluble on expression in E. coli” value is “not soluble”.

As for “MVTIVWKESKGTAKSRYKARRAELIAERRSNEALARKIALKLSGCVRADKAASLGSLRCKKADECSGSICLPNVAIYAAGYRKSKQLTAR”, the “soluble on expression in E. coli” value is reported as “not soluble”.

As to “MGSDKIHHHHHHMPNIDTFVPEKIQIGISSCLLGNQVRFDGGHKNSYYCRQEIEPFFEYTTVCPEMAIGMGTPRKSIRQIRDGDVVHIRSADGTLDVTDKLNEYSQAKVEELDYLGGYILCAKSPTCGMERVTEYKIGTNNGSKTGVGVFAKKLMERYPLLPVEEEGRLHDLPLRENFFTRVFAYNDWKQMTQSGLTKHKLMQFHSRYKYLLMAHSPKWYRDLGPILADIQDVEQTAQQYFEGFMTALKIIATRKNHTSTLQHIQGYFKKQLTAEQKEELSESILKYRQGLLPLLVPITLINHYVREFHTPYIQDQVYLNPHPEALKLRYAY”, the “soluble on expression in E. coli” value is on record as “not soluble”.

For the origin of these results see the DeepSol protein solubility set.
